Experimental data as given in patent US20040224408A1, “THAP proteins as nuclear receptors for chemokines and roles in transcriptional regulation, cell proliferation and cell differentiation” (published 2004).

T1: Par4 deletion mutant lacking the leucine zipper/death domain (amino acids 1-276) (human, UniProt Q96IZ0 1-274)
T1 construct: Tested as a Gal4-BD or Gal4-AD fusion in yeast two-hybrid; also called Par4A; Par4Δ
T1 sequence: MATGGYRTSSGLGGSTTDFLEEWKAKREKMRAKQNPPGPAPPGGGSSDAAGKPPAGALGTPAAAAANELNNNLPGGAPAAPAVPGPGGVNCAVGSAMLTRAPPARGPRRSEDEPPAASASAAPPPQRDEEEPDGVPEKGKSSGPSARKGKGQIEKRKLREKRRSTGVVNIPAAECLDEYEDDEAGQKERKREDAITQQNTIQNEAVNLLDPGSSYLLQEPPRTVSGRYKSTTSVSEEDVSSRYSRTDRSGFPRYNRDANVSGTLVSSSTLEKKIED

T2: THAP1-N3 deletion mutant (amino acids 1-192) (human, UniProt Q9NVV9 1-192)
T2 construct: Tested as a Gal4-BD or Gal4-AD fusion, as in vitro translated 35S-labelled protein and as an EGFP fusion
T2 sequence: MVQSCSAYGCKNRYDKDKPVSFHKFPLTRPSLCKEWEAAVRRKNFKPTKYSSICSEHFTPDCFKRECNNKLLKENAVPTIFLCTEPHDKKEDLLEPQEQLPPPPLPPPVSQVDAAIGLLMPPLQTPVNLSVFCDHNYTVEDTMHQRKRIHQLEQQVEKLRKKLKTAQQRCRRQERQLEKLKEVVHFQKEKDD

T3: THAP1-C1 deletion mutant (amino acids 90-213) (human, UniProt Q9NVV9 90-213)
T3 construct: Tested as a Gal4-BD or Gal4-AD fusion, as in vitro translated 35S-labelled protein and as an EGFP fusion; also called THAP1ΔTHAP; THAP1?THAP
T3 sequence: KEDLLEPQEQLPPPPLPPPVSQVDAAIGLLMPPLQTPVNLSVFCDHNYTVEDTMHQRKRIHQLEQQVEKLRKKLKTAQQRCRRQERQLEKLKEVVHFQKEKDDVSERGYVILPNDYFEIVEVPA

T4: THAP1-N2 deletion mutant (amino acids 1-166) (human, UniProt Q9NVV9 1-166)
T4 construct: Tested as a Gal4-BD or Gal4-AD fusion, as in vitro translated 35S-labelled protein and as an EGFP fusion
T4 sequence: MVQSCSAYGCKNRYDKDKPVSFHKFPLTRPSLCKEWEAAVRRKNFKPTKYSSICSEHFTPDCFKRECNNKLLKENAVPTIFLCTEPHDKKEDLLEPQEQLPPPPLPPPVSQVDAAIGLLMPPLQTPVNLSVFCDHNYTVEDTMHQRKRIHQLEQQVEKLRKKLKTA

B1: human THAP1 (THanatos (death)-Associated Protein-1), full length (other)
chain: MVQSCSAYGCKNRYDKDKPVSFHKFPLTRPSLCKEWEAAVRRKNFKPTKYSSICSEHFTPDCFKRECNNKLLKENAVPTIFLCTEPHDKKEDLLEPQEQLPPPPLPPPVSQVDAAIGLLMPPLQTPVNLSVFCDHNYTVEDTMHQRKRIHQLEQQVEKLRKKLKTAQQRCRRQERQLEKLKEVVHFQKEKDDVSERGYVILPNDYFEIVEVPA
notes: It was tested as a Gal4-BD (pGBKT7) or Gal4-AD (pGADT7); also called hTHAP1; FLJ10477
B2: human chemokine SLC/CCL21, mature form (amino acids 24-134) (ligand)
chain: SDGGAQDCCLKYSQRKIPAKVVRSYRKQEPSLGCSIPAILFLPRKRSQAELCADPKELWVQQLMQHLDKTPSPQKPAQGCRKDRGASKTGKKGKGSKGCKRTERSQTPKGP
notes: also called SLC/6Ckine; SLC/CCL21 wild type

Experiments:
[1] = molecular target: T1, Par4 deletion mutant lacking the …; experiment: yeast two-hybrid (His/Ade selection)
Description: We then examined whether the leucine zipper/death domain at the C-terminus of Par4, previously shown to be involved in Par4 binding to WT-1 and aPKC, was required for the interaction between THAP1 and Par4. Two Par4 mutants were constructed for that purpose, Par4A and Par4DD. Par4A lacks the leucine zipper/death domain while Par4DD contains this domain. pGBKT7-Par4A(amino acids 1-276) and pGADT7-Par4A. were constructed by sub-cloning a EcoRI-BglII fragment from pGADT7-Par4 into the EcoRI and BamHI sites of pGBKT7 and pGADT7. Par4DD (amino acids 250-342) was amplified by PCR, using pGBKT7-Par4 as template, with primers Par4.4 (5′-[…]-3′) (SEQ ID NO: 193) and Par4.5, and cloned into the EcoRI and BamHI sites of pGBKT7 and pGADT7 to obtain pGBKT7-Par4DD and pGADT7-Par4DD. Two-hybrid interaction between THAP1 and Par4 mutants was tested by cotransformation of AH109 with pGBKT7-THAP1 and pGADT7-Par4A or pGADT7-Par4DD and selection of transformants by His and Ade double auxotrophy according to manufacturer's instructions ([…] two-hybrid system 3, Clontech). […] Similar results were obtained when two-hybrid experiments were performed in the opposite orientation using Par4 or Par4 mutants (Par4A and Par4DD) as baits instead of THAP1 (FIG. 3A).

[2] = molecular target: T5, Glutathione S-transferase (GST) control protein (pGEX-2T) (UniProt P08515 1-218 = GST); experiment: GST pull-down, immobilized GST control, in vitro translated 35S-labelled THAP1
T5 construct: Negative control immobilized on glutathione sepharose; also called GST beads; immobilized GST alone
T5 sequence (P08515 whole entry): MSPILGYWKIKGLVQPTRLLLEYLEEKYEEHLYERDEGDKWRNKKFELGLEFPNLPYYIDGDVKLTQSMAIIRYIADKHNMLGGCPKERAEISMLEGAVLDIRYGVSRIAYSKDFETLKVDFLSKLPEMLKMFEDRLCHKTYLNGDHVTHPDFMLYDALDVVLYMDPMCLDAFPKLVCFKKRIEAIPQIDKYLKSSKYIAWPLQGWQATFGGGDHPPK
Procedure: To confirm the interaction observed in yeast, we performed in vitro GST pull down assays. Par4DD, expressed as a GST-tagged fusion protein and immobilized on glutathione sepharose, was incubated with radiolabeled in vitro translated THAP1. To generate the GST-Par4DD expression vector, Par4DD (amino acids 250-342) was amplified by PCR with primers Par4.10 (5′-[…]-3′) (SEQ ID NO: 194) and Par4.5, and cloned in frame downstream of the Glutathion S-Transferase ORF, into the BamHI site of the pGEX-2T prokaryotic expression vector (Amersham Pharmacia Biotech, Saclay, France). GST-Par4DD(amino acids 250-342) fusion protein encoded by plasmid pGEX-2T-Par4DD and control GST protein encoded by plasmid pGEX-2T, were then expressed in E. Coli DH5α and purified by affinity chromatography with glutathione sepharose according to supplier's instructions (Amersham Pharmacia Biotech). The yield of proteins used in GST pull-down assays was determined by SDS-Polyarylamide Gel Electrophoresis (PAGE) and Coomassie blue staining analysis. In vitro-translated THAP1 was generated with the TNT-coupled reticulocyte lysate system (Promega, Madison, Wis., USA) using pGBKT7-THAP1 vector as template. […]

human THAP1 (THanatos …) = molecular target: B1; experiment: yeast two-hybrid screen of the pGAD424-HEVEC cDNA library with pGBT9-SLC bait (His selection)
Description: In an effort to define the function of novel HEVEC proteins and the cellular pathways involved, we used different baits to screen a two-hybrid cDNA library generated from microvascular human HEV endothelial cells (HEVEC). HEVEC were purified from human tonsils by immunomagnetic selection with monoclonal antibody MECA-79 as previously described (Girard and Springer (1995) Immunity 2:113-123). The SMART PCR cDNA library Construction Kit (Clontech, Palo Alto, Calif., USA) was first used to generate full-length cDNAs from 1 μg HEVEC total RNA. Oligo-dT-primed HEVEC cDNA were then digested with SfiI and directionally cloned into pGAD424-Sfi, a two-hybrid vector generated by inserting a SfiI linker (5′-[…]-3′) (SEQ ID NO: 181) between EcoRI and BamHI cloning sites of pGAD424 (Clontech). The resulting pGAD424-HEVEC cDNA two-hybrid library (mean insert size>1 kb, ˜3×10⁶ independant clones) was amplified in E. coli. […]

[3] = molecular target: T2, THAP1-N3 deletion mutant (amino acids …); experiment: yeast two-hybrid, pGADT7-THAP1 mutant with pGBKT7-SLC/CCL21
Procedure: (§1) Two-hybrid interaction between THAP1 mutants and chemokine SLC/CCL21 was tested by cotransformation of AH109 with pGADT7-THAP1-C1, -C2, -C3, -N1, -N2 or -N3 and pGBKT7-SLC/CCL21 and selection of transformants by His and Ade double auxotrophy according to manufacturer's instructions ([…] two-hybrid system 3, Clontech). pGBKT7-SLC/CCL21 vector was generated by subcloning the BamHI SLC/CCL21 fragment from pGBT9-SLC (see example 1) into the unique BamHI cloning site of vector pGBKT7 (Clontech).

[4] = molecular target: T3, THAP1-C1 deletion mutant (amino acids …); experiment: as above
Procedure: as §1

[5] = molecular target: T4, THAP1-N2 deletion mutant (amino acids …); experiment: as above
Procedure: as §1

[6] = molecular target: T5, Glutathione S-transferase (GST) control …; experiment: GST pull-down, immobilized GST control, in vitro translated 35S-labelled SLC/CCL21

Row | Binder | binding result [1] | binding result [2] | binding result (human THAP1 (THanatos …)) | binding result [3] | binding result [4] | binding result [5] | binding result [6]
1 | B1 | no binding | no binding | – | – | – | – | –
2 | B2 | – | – | binds | no binding | binds | no binding | no binding
